94 variants from the supplement of paper PMC10567573 can be followed below.

To fix the notation:
B1: INTS4 (parent)
chain: AKQIMEETYKMEFMYSGVENKQVV
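Further: lentivirally expressed fusions sorted by FACS into six bins by GFP to DsRed ratio, PSI derived from sequencing read proportions per bin multiplied by bin number.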

Variants of B1 are the subject of this data set. Kind of data set: protein stability index of a GFP-peptide fusion (GPS, HEK-293T) (PSI 1-6); higher = more stable. The following applies: c terminus: a fixed tail appended.
As to AKQIMEETYKMDFMYSGVENKQVV [E12D], the protein stability index is 2.18.
The result for AKQIMEETYKMRFMYSGVENKQVV [E12R] reads 2.34; that for AKQIMEETYKMEFMMSGVENKQVV [Y15M], 2.54; that for AKQIMEETYKMEFMPSGVENKQVV [Y15P], 3.04.
On to AKQIMEETYKMEFMWSGVENKQVV [Y15W], for which the protein stability index was found to be 1.67.
The result for AKQIMEETYKMEFMKSGVENKQVV [Y15K] reads 2.62.
On to AKQIMEETYKMEFMRSGVENKQVV [Y15R], for which the protein stability index is 2.67.
AKQIMEETYKMEFMSSGVENKQVV [Y15S]: the protein stability index was determined as 2.15.
The result for AKQIMEETYKMEFMISGVENKQVV [Y15I] reads 2.
The result for AKQIMEETYKMEFMESGVENKQVV [Y15E] reads 2.9; that for AKQIMEETYKMEFMQSGVENKQVV [Y15Q], 2.61; that for AKQIMEETYKMEFMYSGVENNQVV [K21N], 2.25.
The result for AKQIMEETYKMEFMYSGVENSQVV [K21S] reads 2.51; that for AKQIMEETYKMEFMYSGVENPQVV [K21P], 2.99; that for AKQIMEETYKMEFMYSGVENHQVV [K21H], 1.75.
As for AKQIMEETYKMEFMYSGVENGQVV [K21G], the protein stability index was determined as 2.5.
Consider AKQIMEETYAMEFMYSGVENKQVV [K10A], for which the protein stability index is 1.91.
The result for AKQIMEETYHMEFMYSGVENKQVV [K10H] reads 1.25.
The result for AKQIMEETYGMEFMYSGVENKQVV [K10G] reads 2.48.
For the variant AKQIMEETYSMEFMYSGVENKQVV [K10S], the protein stability index worked out at 1.81.
As to AKQIMEETYPMEFMYSGVENKQVV [K10P], the protein stability index amounted to 3.79.
The result for AKQIMEETYEMEFMYSGVENKQVV [K10E] reads 3.15; that for AKQIMEETYFMEFMYSGVENKQVV [K10F], 1.13.
The result for AKQIMEETYKREFMYSGVENKQVV [M11R] reads 3.42; that for AKQIMEETYKGEFMYSGVENKQVV [M11G], 3.28; that for AKQIMEETYKHEFMYSGVENKQVV [M11H], 3.56.
Take AKQIMEETYKSEFMYSGVENKQVV [M11S]: the protein stability index amounted to 2.37.
For AKQIMEETYKTEFMYSGVENKQVV [M11T], the protein stability index worked out at 2.9.
As to AKQCMEETYKMEFMYSGVENKQVV [I4C], the protein stability index was determined as 2.6.
AKQDMEETYKMEFMYSGVENKQVV [I4D]: the protein stability index was 2.92.
AKQEMEETYKMEFMYSGVENKQVV [I4E]: the protein stability index was 3.46.
Take AKQNMEETYKMEFMYSGVENKQVV [I4N]: the protein stability index was 2.58.
Under AKQTMEETYKMEFMYSGVENKQVV [I4T] stands 2.9.
Under AKQLMEETYKMEFMYSGVENKQVV [I4L] stands 1.35; under AKQVMEETYKMEFMYSGVENKQVV [I4V], 2.42; under AKQIMEEPYKMEFMYSGVENKQVV [T8P], 3.46.
The result for AKQIMEEWYKMEFMYSGVENKQVV [T8W] reads 2.71; that for AKQIMEEHYKMEFMYSGVENKQVV [T8H], 2.54; that for AKQIMEEYYKMEFMYSGVENKQVV [T8Y], 1.92.
With AKQIMEEIYKMEFMYSGVENKQVV [T8I], the protein stability index was found to be 1.28.
The result for AKQIMEERYKMEFMYSGVENKQVV [T8R] reads 1.84; that for AKQIMEESYKMEFMYSGVENKQVV [T8S], 2.39.
The result for AKQIMEEQYKMEFMYSGVENKQVV [T8Q] reads 2.19; that for AKQIMEETYKMEFMYSGVENKQVL [V24L], 1.73.
Under AKQIMEETYKMEFMYSGVENKQVT [V24T] stands 1.72; under AKQIMEETYKMEFMYSGVENKQVE [V24E], 1.78.
As for AKQIMEETYKMEFMYSGVENKQVY [V24Y], the protein stability index stood at 2.01.
Under AKQIMEETYKMEFMYSGVENKQVH [V24H] stands 1.65.
AKQIMEETYKMEFMYSGVENKQVK [V24K]: the protein stability index amounted to 1.98.
AKQIMEETYKMEFKYSGVENKQVV [M14K]: the protein stability index came out at 1.71.
The result for AKQIMEETYKMEFNYSGVENKQVV [M14N] reads 1.99.
Under AKQIMEETYKMEFWYSGVENKQVV [M14W] stands 2.02; under AKQIMEETYKMEFPYSGVENKQVV [M14P], 3.88.
For the variant AKQIMEETYKMEFQYSGVENKQVV [M14Q], the protein stability index is 2.11.
Take AKQIMEETYKMEFDYSGVENKQVV [M14D]: the protein stability index was determined as 3.4.
For the variant AKQIMEETYKMEFGYSGVENKQVV [M14G], the protein stability index is 2.43.
On to AKQIMEETYKMEFYYSGVENKQVV [M14Y], for which the protein stability index came out at 1.25.
AKQIMEETYKMEFSYSGVENKQVV [M14S]: the protein stability index is 1.66.
On to AKQIMEETYKMEFMYLGVENKQVV [S16L], for which the protein stability index stood at 2.08.
In the case of AKQIMEETYKMEFMYQGVENKQVV [S16Q], the protein stability index stood at 1.91.
Under AKQIMEETYKMEFMYFGVENKQVV [S16F] stands 3.1; under AKQIMEETYKMEFMYYGVENKQVV [S16Y], 1.76; under AKQIMEETYKMEFMYDGVENKQVV [S16D], 1.86.
The result for AKQIMEETYKMEFMYIGVENKQVV [S16I] reads 2.62; that for AKQIMEETYKMEFMYCGVENKQVV [S16C], 2.1.
Turning to AKQIMEETYKMEFMYSGTENKQVV [V18T], the protein stability index is 1.71.
The result for AKQIMEETYKMEFMYSGWENKQVV [V18W] reads 1.95; that for AKQIMEETYKMEFMYSGAENKQVV [V18A], 2.04.
Take AKQIMEETYKMEFMYSGCENKQVV [V18C]: the protein stability index was 1.92.
Consider AKQIMEETYKMEFMYSGQENKQVV [V18Q], for which the protein stability index amounted to 2.34.
Under AKQIMEETYKMEFMYSGLENKQVV [V18L] stands 2.12; under AKQIMEETYKMEFMYSGVVNKQVV [E19V], 1.28.
The result for AKQIMEETYKMEFMYSGVKNKQVV [E19K] reads 1.07; that for AKQIMEETYKMEFMYSGVRNKQVV [E19R], 1.95.
As for AKQIMEETYKMEFMYSGVINKQVV [E19I], the protein stability index worked out at 1.54.
Under AKQIMEETYKMEFMYSGVQNKQVV [E19Q] stands 1.84; under AKQIMEETYKMEFMYSGVHNKQVV [E19H], 2.06.
As to AKQIMEETYKMEFMYSGVNNKQVV [E19N], the protein stability index worked out at 1.91.
With AKQIMEETYKMEFMYSGVGNKQVV [E19G], the protein stability index turned out to be 1.9.
For the variant AKQIMEETYKMEFMYSGVENKEVV [Q22E], the protein stability index was 1.48.
As to AKQIMEETYKMEFMYSGVENKCVV [Q22C], the protein stability index stood at 2.97.
AKQIMEETYKMEFMYSGVENKHVV [Q22H]: the protein stability index is 1.98.
Under AKQIMEETYKMEFMYSHVENKQVV [G17H] stands 2.5; under AKQIMEETYKMEFMYSLVENKQVV [G17L], 1.49; under AKQIMEETYKMEFMYSSVENKQVV [G17S], 1.59.
Under AKQIMEETYKMEFMYSQVENKQVV [G17Q] stands 2.37.
The result for AKQIMEETYKMEFMYSDVENKQVV [G17D] reads 1.84; that for AKQIMEWTYKMEFMYSGVENKQVV [E7W], 3.34; that for AKQIMEHTYKMEFMYSGVENKQVV [E7H], 1.7.
As to AKQIMENTYKMEFMYSGVENKQVV [E7N], the protein stability index turned out to be 1.9.
For the variant AKQIMEMTYKMEFMYSGVENKQVV [E7M], the protein stability index worked out at 1.5.
In the case of AKQIMETTYKMEFMYSGVENKQVV [E7T], the protein stability index stood at 1.96.
For AKQIMESTYKMEFMYSGVENKQVV [E7S], the protein stability index came out at 1.67.
The result for AKQIMELTYKMEFMYSGVENKQVV [E7L] reads 1.38.
